Changes are numbered by the printed parent chain. In names and notes the source's numbering stands.
Key:
[1] = molecular target: T1, Lys(Dnp)-GDEGDR-HAEGT-Lys(Abz)amide
T1 chain: KGDEGDRHAEGTK

[2] = molecular target: T2, Lys(Dnp)-DLGDR-HSQGT-Lys(Abz)amide
T2 chain: KDLGDRHSQGTK

[3] = molecular target: T3, Lys(Dnp)-EHGDR-HAEGT-Lys(Abz)amide
T3 chain: KEHGDRHAEGTK

[4] = molecular target: T4, Lys(Dnp)-EFGDR-HAEGT-Lys(Abz)amide
T4 chain: KEFGDRHAEGTK

[5] = molecular target: T5, Lys(Dnp)-EEGDR-HAEGT-Lys(Abz)amide
T5 chain: KEEGDRHAEGTK

[6] = molecular target: T6, DVEPGQPLYDEGDR-[Arg34]GLP-1(9-37)
T6 chain: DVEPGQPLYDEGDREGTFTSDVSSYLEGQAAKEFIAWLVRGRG

[7] = molecular target: T7, Lys(Dnp)-HDEGDR-HAEGT-Lys(Abz)amide
T7 chain: KHDEGDRHAEGTK

[8] = molecular target: T8, DVKPGEPLYDDDDK-[Arg34]GLP-1(9-37)
T8 chain: T6 chain with E3K, Q6E, E11D, G12D, R14K

[9] = molecular target: T9, Lys(Dnp)-YDEGDR-HAEGT-Lys(Abz)amide
T9 chain: KYDEGDRHAEGTK

[10] = molecular target: T10, Lys(Dnp)-SSGDRHAEGT-Lys(Abz)amide
T10 chain: KSSGDRHAEGTK

[11] = molecular target: T11, Lys(Dnp)-DDGDR-EGTFT-Lys(Abz)amide
T11 chain: KDDGDREGTFTK

[12] = molecular target: T12, Lys(Dnp)-WDEGDR-HAEGT-Lys(Abz)amide
T12 chain: KWDEGDRHAEGTK

[13] = molecular target: T13, DVKEGQPLYDEGDR-[Arg34]GLP-1(9-37)
T13 chain: T6 chain with E3K, P4E

[14] = molecular target: T14, Lys(Dnp)-MDEGDR-HAEGT-Lys(Abz)amide
T14 chain: KMDEGDRHAEGTK

[15] = molecular target: T15, Lys(Dnp)-EDEGDR-HAEGT-Lys(Abz)amide
T15 chain: KEDEGDRHAEGTK

[16] = molecular target: T16, Lys(Dnp)-EGGDR-EGTFT-Lys(Abz)amide
T16 chain: KEGGDREGTFTK

[17] = molecular target: T17, Lys(Dnp)-DQGDR-HAEGT-Lys(Abz)amide
T17 chain: KDQGDRHAEGTK

[18] = molecular target: T18, Lys(Dnp)-QEGDR-HGEGT-Lys(Abz)amide
T18 chain: KQEGDRHGEGTK

[19] = molecular target: T19, Lys(Dnp)-DDGDR-HGTFT-Lys(Abz)amide
T19 chain: KDDGDRHGTFTK

[20] = molecular target: T20, Lys(Dnp)-DWGDR-HAEGT-Lys(Abz)amide
T20 chain: KDWGDRHAEGTK

[21] = molecular target: T21, Lys(Dnp)-EYGDR-HAEGT-Lys(Abz)amide
T21 chain: KEYGDRHAEGTK

[22] = molecular target: T22, Lys(Dnp)-DDGDR-HSQGT-Lys(Abz)amide
T22 chain: KDDGDRHSQGTK

[23] = molecular target: T23, Lys(Dnp)-EWGDR-HAEGT-Lys(Abz)amide
T23 chain: KEWGDRHAEGTK

[24] = molecular target: T24, Lys(Dnp)-NEGDR-HAEGT-Lys(Abz)amide
T24 chain: KNEGDRHAEGTK

[25] = molecular target: T25, Lys(Dnp)-DEGDR-HGEGT-Lys(Abz)amide
T25 chain: KDEGDRHGEGTK

[26] = molecular target: T26, Lys(Dnp)-DYGDR-HAEGT-Lys(Abz)amide
T26 chain: KDYGDRHAEGTK

[27] = molecular target: T27, Lys(Dnp)-NEDGDR-HAEGT-Lys(Abz)amide (not fully specified)
T27 chain: KNEDGDRHAEGTK

[28] = molecular target: T28, Lys(Dnp)-DLGDR-HGEGT-Lys(Abz)amide
T28 chain: KDLGDRHGEGTK

[29] = molecular target: T29, Lys(Dnp)-DFGDR-HGEGT-Lys(Abz)amide
T29 chain: KDFGDRHGEGTK

[30] = molecular target: T30, Lys(Dnp)-DGGDR-HAEGT-Lys(Abz)amide
T30 chain: KDGGDRHAEGTK

[31] = molecular target: T31, DVEPGQPLYDDDDK-[Arg34]GLP-1(9-37)
T31 chain: T6 chain with E11D, G12D, R14K

[32] = molecular target: T32, Lys(Dnp)-EGGDR-HGEGT-Lys(Abz)amide
T32 chain: KEGGDRHGEGTK

[33] = molecular target: T33, Lys(Dnp)-ESGDR-EGTFT-Lys(Abz)amide
T33 chain: KESGDREGTFTK

[34] = molecular target: T34, Lys(Dnp)-ESGDR-HAEGT-Lys(Abz)amide
T34 chain: KESGDRHAEGTK

[35] = molecular target: T35, Lys(Dnp)-ELGDR-HAEGT-Lys(Abz)amide
T35 chain: KELGDRHAEGTK

[36] = molecular target: T36, Lys(Dnp)-DSGDR-HSQGT-Lys(Abz)amide
T36 chain: KDSGDRHSQGTK

[37] = molecular target: T37, Lys(Dnp)-SGGDRHAEGT-Lys(Abz)amide
T37 chain: KSGGDRHAEGTK

[38] = molecular target: T38, DVKPGQPLEDDDDK-[Arg34]GLP-1(9-37)
T38 chain: T6 chain with E3K, Y9E, E11D, G12D, R14K

[39] = molecular target: T39, Lys(Dnp)-DWGDR-HGEGT-Lys(Abz)amide
T39 chain: KDWGDRHGEGTK

[40] = molecular target: T40, Lys(Dnp)-ETGDR-HAEGT-Lys(Abz)amide
T40 chain: KETGDRHAEGTK

[41] = molecular target: T41, Lys(Dnp)-DEGDR-QGTFT-Lys(Abz)amide
T41 chain: KDEGDRQGTFTK

B1: bovine Enterokinase light chain variant (C112A, L134K, I135K) (protein)
chain: IVGGSDSREGAWPWVVALYFDDQQVCGASLVSRDWLVSAAHCVYGRNMEPSKWKAVLGLHMASNLTSPQIETRLIDQIVINPHYNKRRKNNDIAMMHLEMKVNYTDYIQPIALPEENQVFPPGRICSIAGWGAKKYQGSTADVLQEADVPLLSNEKCQQQMPEYNITENMVCAGYEAGGVDSCQGDSGGPLMCQENNRWLLAGVTSFGYQCALPNRPGVYARVPRFTEWIQSFLH
Activity (%) [1]: 267%
Activity (%) [2]: 268%
Activity (%) [3]: 549%
Activity (%) [4]: 486%
Activity (%) [5]: 988%
Activity (%) [6]: 951%
Activity (%) [7]: 204%
Activity (%) [8]: 162%
Activity (%) [9]: 153%
Activity (%) [10]: 191%
Activity (%) [11]: 428%
Activity (%) [12]: 181%
Activity (%) [13]: 913%
Activity (%) [14]: 209%
Activity (%) [15]: 159%
Activity (%) [16]: 380%
Activity (%) [17]: 770%
Activity (%) [18]: 275%
Activity (%) [19]: 402%
Activity (%) [20]: 513%
Activity (%) [21]: 539%
Activity (%) [22]: 310%
Activity (%) [23]: 456%
Activity (%) [24]: 457%
Activity (%) [25]: 736%
Activity (%) [26]: 505%
Activity (%) [27]: 114%
Activity (%) [28]: 438%
Activity (%) [29]: 253%
Activity (%) [30]: 431%
Activity (%) [31]: 203%
Activity (%) [32]: 279%
Activity (%) [33]: 362%
Activity (%) [34]: 557%
Activity (%) [35]: 659%
Activity (%) [36]: 200%
Activity (%) [37]: 243%
Activity (%) [38]: 100%
Activity (%) [39]: 338%
Activity (%) [40]: 475%
Activity (%) [41]: 411%

— US20160319321
